Measured values taken from patent US20160264649A1.

Legend:
Assay in all cases: cell-based or functional assay
[1] = target: HIV-1 Env of isolate MGRM-D-011 (subtype D) (HIV-1)
[2] = target: HIV-1 Env of isolate MGRM-D-020 (subtype D) (HIV-1)
[3] = target: HIV-1 Env of isolate MGRM-F1-022 (subtype F) (HIV-1)
[4] = target: HIV-1 Env of isolate MGRM-D-002 (subtype D) (HIV-1)
[5] = target: HIV-1 Env of pseudovirus isolate MGRM-G-017 (subtype G) (HIV-1)
[6] = target: HIV-1 Env of pseudovirus isolate MGRM-G-013 (subtype G) (HIV-1)
[7] = target: HIV-1 Env of isolate MGRM-D-028 (subtype D) (HIV-1)
[8] = target: HIV-1 Env of isolate MGRM-F1-023 (subtype F) (HIV-1)
[9] = target: HIV-1 Env of pseudovirus isolate MGRM-G-015 (subtype G) (HIV-1)
[10] = target: HIV-1 Env of isolate MGRM-D-018 (subtype D) (HIV-1)
[11] = target: HIV-1 Env of isolate MGRM-D-026 (subtype D) (HIV-1)
[12] = target: HIV-1 Env of isolate MGRM-F1-012 (subtype F) (HIV-1)
[13] = target: HIV-1 Env of isolate MGRM-D-029 (subtype D) (HIV-1)
[14] = target: HIV-1 Env of isolate MGRM-F1-021 (subtype F) (HIV-1)
[15] = target: HIV-1 Env of isolate MGRM-F1-020 (subtype F) (HIV-1)
[16] = target: HIV-1 Env of isolate MGRM-D-008 (subtype D) (HIV-1)
[17] = target: HIV-1 Env of isolate MGRM-D-003 (subtype D) (HIV-1)
[18] = target: HIV-1 Env of pseudovirus isolate MGRM-G-006 (subtype G) (HIV-1)
[19] = target: HIV-1 Env of isolate MGRM-F1-008 (subtype F) (HIV-1)
[20] = target: HIV-1 Env of pseudovirus isolate MGRM-G-014 (subtype G) (HIV-1)
[21] = target: HIV-1 Env of pseudovirus isolate MGRM-G-016 (subtype G) (HIV-1)
[22] = target: HIV-1 Env of isolate MGRM-D-004 (subtype D) (HIV-1)
[23] = target: HIV-1 Env of isolate MGRM-D-014 (subtype D) (HIV-1)
[24] = target: HIV-1 Env of isolate 92UG024 (subtype D) (HIV-1)
[25] = target: HIV-1 Env of isolate MGRM-D-001 (subtype D) (HIV-1)
[26] = target: HIV-1 Env of isolate 92UG001 (subtype D) (HIV-1)
[27] = target: HIV-1 Env of isolate MGRM-D-016 (subtype D) (HIV-1)
[28] = target: HIV-1 Env of pseudovirus isolate MGRM-G-009 (subtype G) (HIV-1)
[29] = target: envelope of aMLV pseudovirus (negative control)
[30] = target: HIV-1 Env of isolate MGRM-D-013 (subtype D) (HIV-1)
[31] = target: HIV-1 Env of isolate MGRM-D-021 (subtype D) (HIV-1)
[32] = target: HIV-1 Env of pseudovirus isolate MGRM-G-025 (subtype G) (HIV-1)
[33] = target: HIV-1 Env of isolate MGRM-F1-016 (subtype F) (HIV-1)
[34] = target: HIV-1 Env of isolate MGRM-F1-013 (subtype F) (HIV-1)
[35] = target: HIV-1 Env of pseudovirus isolate MGRM-G-001 (subtype G) (HIV-1)
[36] = target: HIV-1 Env of pseudovirus isolate MGRM-G-019 (subtype G) (HIV-1)
[37] = target: HIV-1 Env of pseudovirus isolate MGRM-G-024 (subtype G) (HIV-1)
[38] = target: HIV-1 Env of isolate MGRM-D-005 (subtype D) (HIV-1)
[39] = target: HIV-1 Env of isolate MGRM-F1-004 (subtype F) (HIV-1)
[40] = target: HIV-1 Env of isolate 92UG046 (subtype D) (HIV-1)
[41] = target: HIV-1 Env of isolate MGRM-F1-006 (subtype F) (HIV-1)
[42] = target: HIV-1 Env of isolate 92UG114 (subtype D) (HIV-1)
[43] = target: HIV-1 Env of pseudovirus isolate MGRM-G-011 (subtype G) (HIV-1)
[44] = target: HIV-1 Env of isolate MGRM-F1-017 (subtype F) (HIV-1)
[45] = target: HIV-1 Env of isolate 98CN006 (subtype CRF08_BC) (HIV-1)
[46] = target: HIV-1 Env of pseudovirus isolate MGRM-G-004 (subtype G) (HIV-1)
[47] = target: HIV-1 Env of isolate MGRM-F1-018 (subtype F) (HIV-1)
[48] = target: HIV-1 Env of isolate MGRM-D-022 (subtype D) (HIV-1)
[49] = target: HIV-1 Env of isolate MGRM-F1-010 (subtype F) (HIV-1)
[50] = target: HIV-1 Env of isolate MGRM-F1-014 (subtype F) (HIV-1)
[51] = target: HIV-1 Env of isolate MGRM-F1-015 (subtype F) (HIV-1)
[52] = target: HIV-1 Env of isolate MGRM-D-012 (subtype D) (HIV-1)
[53] = target: HIV-1 Env of isolate MGRM-D-024 (subtype D) (HIV-1)
[54] = target: HIV-1 Env of pseudovirus isolate MGRM-G-027 (subtype G) (HIV-1)
[55] = target: HIV-1 Env of isolate 92UG005 (subtype D) (HIV-1)
[56] = target: HIV-1 Env of isolate 98CN009 (subtype CRF07_BC) (HIV-1)
[57] = target: HIV-1 Env of pseudovirus isolate MGRM-G-028 (subtype G) (HIV-1)
[58] = target: HIV-1 Env of isolate MGRM-D-019 (subtype D) (HIV-1)
[59] = target: HIV-1 JR-CSF Env I309A (HIV-1) (UniProt P20871)
[60] = target: HIV-1 ADA Env (HIV-1)
[61] = target: HIV-1 JR-CSF Env Y318A (HIV-1) (UniProt P20871)
[62] = target: HIV-1 PVO.4 Env (HIV-1)
[63] = target: HIV-1 JR-CSF Env (wild-type) (HIV-1) (UniProt P20871)
[64] = target: HIV-1 ZM233 Env (HIV-1)
[65] = target: HIV-1 TR0.11 Env (HIV-1)
[66] = target: HIV-1 Du172 Env (HIV-1)
[67] = target: HIV-1 REJ04541 Env (HIV-1)
[68] = target: HIV-1 ZM214 Env (HIV-1)
[69] = target: HIV-1 CAAN Env (HIV-1)
[70] = target: HIV-1 CAP45 Env (HIV-1)
[71] = target: HIV-1 DU156 Env (HIV-1)
[72] = target: HIV-1 THRO.18 Env (HIV-1)
[73] = target: HIV-1 92RW020 Env (HIV-1)
[74] = target: HIV-1 JR-FL Env E168K (HIV-1)
[75] = target: HIV-1 AC10 Env (HIV-1)
[76] = target: MuLV envelope (control pseudovirus)
[77] = target: HIV-1 DU422 Env (HIV-1)
[78] = target: HIV-1 ZM249 Env (HIV-1)

B1: PGT-137 (antibody, V domains shown)
VH: EVHLEESGPGLVRPSETLSLTCTASGGSIRGGEWGDSDYHWGWVRHSPEKGLEWIGSIHWRGTTHYNAPFRGRGRLSIDLSRNQFSLRLTSVTAEDTAVYYCVKHKYHDIVMVVPIAGWFDPWGQGLQVTVSS
VL: EIMMTQSPAILSVSPGDRATLSCRASQSVKNNLAWYQKRPGQAPRLLIFDTSSRASGIPARFSGGGSGTEFTLTVNSMQSEDFATYYCQQYEEWPRTFGQGTKVEIK
IC50 (neutralization) [1]: 6.3 µg/mL | IC50 (neutralization) [2]: > 50 µg/mL | IC50 (neutralization) [3]: 6.23 µg/mL | IC50 (neutralization) [4]: > 50 µg/mL | IC50 [5]: 34.9 µg/mL | IC50 [6]: > 50 µg/mL | IC50 (neutralization) [7]: > 50 µg/mL | IC50 (neutralization) [8]: > 50 µg/mL | IC50 [9]: > 50 µg/mL | IC50 (neutralization) [10]: 15.1 µg/mL | IC50 (neutralization) [11]: > 50 µg/mL | IC50 (neutralization) [12]: > 50 µg/mL | IC50 (neutralization) [13]: > 50 µg/mL | IC50 (neutralization) [14]: > 50 µg/mL | IC50 (neutralization) [15]: 1.93 µg/mL | IC50 (neutralization) [16]: > 50 µg/mL | IC50 (neutralization) [17]: > 50 µg/mL | IC50 [18]: > 50 µg/mL | IC50 (neutralization) [19]: > 50 µg/mL | IC50 [20]: > 50 µg/mL | IC50 [21]: > 50 µg/mL | IC50 (neutralization) [22]: > 50 µg/mL | IC50 (neutralization) [23]: > 50 µg/mL | IC50 (neutralization) [24]: 0.106 µg/mL | IC50 (neutralization) [25]: > 50 µg/mL | IC50 (neutralization) [26]: > 50 µg/mL | IC50 (neutralization) [27]: > 50 µg/mL | IC50 [28]: > 50 µg/mL | IC50 [29]: > 50 µg/mL | IC50 (neutralization) [30]: > 50 µg/mL | IC50 (neutralization) [31]: > 50 µg/mL | IC50 [32]: > 50 µg/mL | IC50 (neutralization) [33]: > 50 µg/mL | IC50 (neutralization) [34]: > 50 µg/mL | IC50 [35]: 41.7 µg/mL | IC50 [36]: 0.126 µg/mL | IC50 [37]: 0.051 µg/mL | IC50 (neutralization) [38]: > 50 µg/mL | IC50 (neutralization) [39]: 40.3 µg/mL | IC50 (neutralization) [40]: > 50 µg/mL | IC50 (neutralization) [41]: > 50 µg/mL | IC50 (neutralization) [42]: > 50 µg/mL | IC50 [43]: > 50 µg/mL | IC50 (neutralization) [44]: > 50 µg/mL | IC50 (neutralization) [45]: 1.22 µg/mL | IC50 [46]: > 50 µg/mL | IC50 (neutralization) [47]: > 50 µg/mL | IC50 (neutralization) [48]: > 50 µg/mL | IC50 (neutralization) [49]: > 50 µg/mL | IC50 (neutralization) [50]: > 50 µg/mL | IC50 (neutralization) [51]: > 50 µg/mL | IC50 (neutralization) [52]: > 50 µg/mL | IC50 (neutralization) [53]: > 50 µg/mL | IC50 [54]: 0.228 µg/mL | IC50 (neutralization) [55]: > 50 µg/mL | IC50 (neutralization) [56]: 5.06 µg/mL | IC50 [57]: > 50 µg/mL | IC50 (neutralization) [58]: > 50 µg/mL

B2: 1503_H05 (PG16) (TCN-119) (antibody, V domains shown)
VH: QEKLVESGGGVVQPGGSLRLSCLASGFTFHKYGMHWVRQAPGKGLEWVALISDDGMRKYHSDSMWGRVTISRDNSKNTLYLQFSSLKVEDTAMFFCAREAGGPIWHDDVKYYDFNDGYYNYHYMDVWGKGTIVTVSS
VL: QSALTQPASVSGSPGQTITISCNGTRSDVGGFDSVSWYQQSPGKAPKVMVFDVSHRPSGISNRFSGSKSGNTASLTISGLHIEDEGDYFCSSLTDRSHRIFGGGTKVTVLG
IC50, TZM-bl pseudovirus neutralization [59]: > 1 µg/mL | IC50, TZM-bl pseudovirus neutralization [60]: 0.003 µg/mL | IC50, TZM-bl pseudovirus neutralization [61]: > 1 µg/mL | IC50, TZM-bl pseudovirus neutralization [62]: 11 µg/mL | IC50, TZM-bl pseudovirus neutralization [63]: 0.001 µg/mL | IC50, TZM-bl pseudovirus neutralization [64]: < 0.01 µg/mL | IC50, TZM-bl pseudovirus neutralization [65]: 4.3 µg/mL | IC50, TZM-bl pseudovirus neutralization [66]: < 0.01 µg/mL | IC50, TZM-bl pseudovirus neutralization [67]: 0.22 µg/mL | IC50, TZM-bl pseudovirus neutralization [68]: > 25 µg/mL | IC50, TZM-bl pseudovirus neutralization [69]: 13.5 µg/mL | IC50, TZM-bl pseudovirus neutralization [70]: < 0.01 µg/mL | IC50, TZM-bl pseudovirus neutralization [71]: < 0.01 µg/mL | IC50, TZM-bl pseudovirus neutralization [72]: 4.12 µg/mL | IC50, TZM-bl pseudovirus neutralization [73]: 0.02 µg/mL | IC50, TZM-bl pseudovirus neutralization [74]: 0.002 µg/mL | IC50, TZM-bl pseudovirus neutralization [75]: < 0.01 µg/mL | IC50, TZM-bl pseudovirus neutralization [76]: > 25 µg/mL | IC50, TZM-bl pseudovirus neutralization [77]: 0.71 µg/mL | IC50, TZM-bl pseudovirus neutralization [78]: < 0.01 µg/mL
